{
  "source": "paper PMC8385992",
  "assay_in_all_cases": "SEC",
  "key": {"[1]": {"biological_target": "SARS-CoV-2 Nsp15 N278A (SARS-CoV-2)"}, "[2]": {"biological_target": "SARS-CoV-2 Nsp15 S294A (SARS-CoV-2)"}, "[3]": {"biological_target": "SARS-CoV-2 Nsp15 W333A (SARS-CoV-2)"}, "[4]": {"biological_target": "SARS-CoV-2 Nsp15 Y343A (SARS-CoV-2)"}},
  "data": [
    {"substance": "SARS-CoV-2 Nsp15 N278A (enzyme)", "values": [
      {"measurement": "stoichiometry N", "setting": "[1]", "result": 6}
    ]},
    {"substance": "SARS-CoV-2 Nsp15 S294A (enzyme)", "values": [
      {"measurement": "stoichiometry N", "setting": "[2]", "result": 6}
    ]},
    {"substance": "SARS-CoV-2 Nsp15 W333A (enzyme)", "values": [
      {"measurement": "stoichiometry N", "setting": "[3]", "result": 6}
    ]},
    {"substance": "SARS-CoV-2 Nsp15 Y343A (enzyme)", "values": [
      {"measurement": "stoichiometry N", "setting": "[4]", "result": 6}
    ]}
  ]
}
